Experimental data from US20230167458A1, “FORSKOLIN-INDUCIBLE PROMOTERS AND HYPOXIA-INDUCIBLE PROMOTERS” (ASKLEPIOS BIOPHARMACEUTICAL, INC., priority 2020, published 2023).

B1: RTV-016: synthetic hypoxia-inducible promoter, SEQ ID NO: 82; 6 HRE2 elements spaced by 20 bp and CMV minimal promoter (nucleic acid)
DNA: CTGCACGTAGATGATGCGTAGCTAGTAGTCTGCACGTAGATGATGCGTAGCTAGTAGTCTGCACGTAGATGATGCGTAGCTAGTAGTCTGCACGTAGATGATGCGTAGCTAGTAGTCTGCACGTAGATGATGCGTAGCTAGTAGTCTGCACGTAGTAGTCGTATGCTGATGCGCAGTTAGCGTAGCTGAGGTACCGTCGACGATATCGGATCCAGGTCTATATAAGCAGAGCTCGTTTAGTGAACCGTCAGATCGCCTAGATACGCCATCCACGCTGTTTTGACCTCCATAGAAGATCGCCACC
modifications: Synp-RTV-016
notes: 6 HRE2 elements spaced by 20 bp and CMV minimal promoter
B2: HYBT: synthetic hypoxia-inducible promoter, SEQ ID NO: 84/86; 4 HRE3 elements and YB-TATA minimal promoter (nucleic acid)
DNA: GATCTTTGTATTTAATTAAGACCTTGAGTACGTGCGTCTCTGCACGTATGGCGATTAAGACCTTGAGTACGTGCGTCTCTGCACGTATGGCGATTAAGACCTTGAGTACGTGCGTCTCTGCACGTATGGCGATTAAGACCTTGAGTACGTGCGTCTCTGCACGTATGGCGATTAATCCATATGCTCTAGAGGGTATATAATGGGGGCCACTAGTCTACTACCAGAAAGCTTGGTACCGAGCTCGGATCCAGCCACC
modifications: Synp-HYBT
notes: 4 HRE3 elements and YB-TATA minimal promoter

How the values were obtained:
CHO-GSK1SV cell line = test: SEAP expression and cell number in normoxia vs 24 h hypoxia, stably transfected CHO-GS-KSV1; type: cell-based, chinese hamster; details: stably integrated CHO-GSK1SV
Method: Cell suspensions of 6×10^5 cells per mL are incubated on an orbital shaker set at 8% CO2, 20% O2, 37° C., 85% relative humidity and 140 rpm overnight. 2.86×10^7 cells were centrifuged at 200 g for 3 minutes. Media is then aspirated and cell pellet resuspended in 2 mL fresh CD-CHO media to obtain a concentration of 1.43×10^7 cells per mL. 700 μL of cell suspension was added to each of two electroporation cuvettes each containing […] of linearised DNA in 100 μL of sterile TE buffer (Thermofisher, 12090015). Each cuvette was electroporated, delivering a single pulse of 300V, […] with resistance to infinity. Immediately after delivery of pulse electroplated cells were transferred to Erlenmeyer 125 mL flask containing 20 mL of CD-CHO media pre-warmed to 37° C. Electroporated cells from two cuvettes are combined into a single 125 mL flask to generate one pool of cells. Cells are cultured on an orbital shaker set at 8% CO2, 20% 02, 37° C., 85% relative humidity and 140 rpm. Cells are transferred to fresh CD-CHO media 24 hours after transfection and cell cultures monitored and given fresh CD-CHO media every 2-4 days. Usually after about 10-14 days cell numbers will be high enough to start passaging. Cells were selected at 14 days and then expanded. Induction was performed once doubling time had returned to approx. 24 hrs. The cells assayed in this example were at passage number 15, 17, 19 and 21.
The transfected DNA was pXC-17.4 expression vector (Lonza Biologics plc) where one of the promoter constructs (RTV-015, HYBT, RTV-016, HV3C) or a control promoter (CMV-IE) have been cloned upstream of the SEAP gene, which had been cloned into the multiple cloning site within the vector expression cassette. Promoters were closed into the pXC-17.4 vector using Gibson assembly. The pXC-17.4 expression vector is designed for making stable cell lines in the CHO-GSK1SV cell line as it contains the […] gene which has been knocked out of the cell line. Therefore, selection of cells in glutamine drop-out medium will select for cells that have stably integrated the plasmid.
Stably transfected CHO-GS cells were seeded at 500,000 cells/ml and allowed to grow for 24 hrs, at this point the cells were counted and placed under hypoxic conditions as previously described. After 24 hrs, the cell numbers and the expression of SEAP was measured.
SEAP Reporter Gene Assay, chemiluminescent (Roche, CAT #11 779 842 001) was used to measured SEAP activity as per manufacturers protocol. All reagents and samples were fully pre-equilibrated at room temperature. Culture supernatant was collected from the stably transfected CHO-GS at the specific time points (0 h and 24 h). The supernatant was diluted 1:4 in dilution buffer and heat treated at 65° C. for 30 minutes. The heat-treated sample was then centrifuged for 30 s at maximum speed. 50 μl of the heat-treated sample was then added to 5 μl of inactivation buffer and incubated for 5 min at room temperature. 50 μl of substrate reagent was then added and incubated for 10 min at room temperature. The signal is then read at 477 nm and compared to a calibration curve. SEAP expression was normalized against cell number to ensure that the increase in activity was not due to increased cell numbers and was true induction. The result of this experiment can be seen in FIG. 16 and FIG. 17.

CHO-GSK1SV = test: Luciferase expression in normoxia vs 24 h hypoxia, transiently transfected CHO-GS suspension cells; type: cell-based, chinese hamster; details: transient CHO_GS
Method: 40 ml of cells were grown in a 250 ml vented Erlenmeyer flask (Sigma-Aldrich CLS431144) at 37° C., 20% O2, 8% CO2 with agitation at 100 rpm. Cells were seeded as at 300,000 cells/ml.
One day before transfection, the cells were counted using a haemocytometer and split to 500,000 cells/ml.
On the day of transfection, the cells are seeded to 1,000,000 cells/ml in 500 μl of appropriate medium (Thermofisher, CD-CHO 10743029) in a 24 well plate. […] of DNA per well was then added to 10 μl of OptiMem medium (Thermofisher; 11058021) and incubated for 5 minutes at room temperature.
Concurrently, 0.625 μl of Freestyle Max reagent (Thermofisher, 16447100) was made up to 10 μl by addition of OptiMem and incubated for 5 minutes at room temperature. After this incubation, both mixes were added to the same tube and incubated at room temperature for 25-30 minutes. The DNA/Max reagent mix (20 μl/well) was then added directly to the cells and the cells incubated at 37 C, 8% CO2 with agitation at 100 rpm.
The transfected DNA was one of the vectors where the promoter constructs (RTV-015, HYBT, RTV-016, HV3C) or a control promoter (CMV-IE) were used to drive luciferase expression and β-galactosidase containing pcDNA6 plasmid. The β-galactosidase containing plasmid was used as internal control for transfection efficiency (Thermofisher, V22020).
After transfection the cells were incubated for 24 hrs in normoxic conditions (20% oxygen). Induction of the promoters was assessed by using luciferase activity after 24 hrs in normoxia or hypoxia (5% oxygen, 10% carbon dioxide and 85% nitrogen). Hypoxia was achieved by gas displacement in a sealed hypoxia chamber. Luciferase activity was measured as described above.

HEK293-T = test: Luciferase expression in normoxia vs 24 h hypoxia, transiently transfected HEK293-T; type: cell-based, human
Method: HEK293-T are seeded at a density of 20%. Once they reached a confluence between 60 and 80%, the media is changed with DMEM (#21885-025—Thermo Scientific) supplemented with 10% FBS (Gibco, 26140). After 3 hours, the cells were transfected by a transfection mix. The transfection mix is prepared by adding DNA ([…] per 6 well plate) and PEI 25 kDA (#23966-1—Polyscience) in a ratio of 1:3 in sterile DPBS (#14190169—ThermoFisher Scientific). After mixing, the transfection mix is incubated at room temperature for 30 minutes and then added directly to the cells. After 16 to 18 h post transfection, the media is changed to DMEM+2% FBS. The transfected DNA was one of the vectors where the promoter constructs (RTV-015, HYBT, RTV-016, HV3C) or a control promoter (CMV-IE) were used to drive luciferase expression and β-galactosidase containing pcDNA6 plasmid. The β-galactosidase containing plasmid was used as internal control for transfection efficiency (Thermofisher, V22020).
After transfection the cells were incubated for 24 hrs in normoxic conditions (20% oxygen). Induction of the promoters was assessed by using luciferase activity after 24 hrs in normoxia or hypoxia (5% oxygen, 10% carbon dioxide and 85% nitrogen). Hypoxia was achieved by gas displacement in a sealed hypoxia chamber.
Luciferase activity was measured using LARII (Dual Luciferase Reporter 1000 assay system, Promega, E1980).
Media was removed from the cells at the respective time point (0, 3, 5, 24 hrs after induction). The cells were washed once in 300 μl of DPBS. Cells were lysed by adding 100 μl of passive lysis buffer to the cells and incubation with rocking for 15 minutes. The cell debris was pelleted by centrifugation of the plate at max speed in a benchtop centrifuge for 1 min. 10 μl of supernatant was pipetted into white 96-well plate and luminescence measured by addition of 50 μl of LARII substrate.
β-galactosidase activity was measured as per manufacturer's instructions (Mammalian βGalactosidase Assay Kit, 75707/75710, Thermo Scientific) using 25 μl of lysate. 25 μl of lysate was transferred into a microplate well and mixed with 25 μl of β-galactosidase Assay Reagent, equilibrated to room temperature. The mixture was incubated at 37° C. for 30 min and absorbance measured at 405 nm.
Luciferase readouts were normalised to β-galactosidase to produce normalised relative luminometer units (RLUs).

Molecule	SEAP activity in normoxia (CHO-GSK1SV cell line)	luciferase activity in normoxia (CHO-GSK1SV)	luciferase activity in normoxia (HEK293-T)	inducibility after 24 hours in hypoxia (rank) (CHO-GSK1SV cell line)
B1	almost no SEAP activity	almost no luciferase activity	almost no luciferase activity	
B2	almost no SEAP activity	almost no luciferase activity	almost no luciferase activity	highest
